According to patent US20130074217A1 (NUTECH VENTURES, published 2013):

Experiments:
EFR-YFPc / EFR-YFPn = molecular target: T1, EFR-YFPc / EFR-YFPn (Arabidopsis thaliana, UniProt C0LGT6 25-1031); experiment: bimolecular fluorescence complementation in N. benthamiana (panel B)
T1 construct: Two BiFC constructs used in both combinations, expressed in N. benthamiana leaves; not shown: split-YFP half (YFPc or YFPn) from the BiFC vector
T1 sequence (looked up): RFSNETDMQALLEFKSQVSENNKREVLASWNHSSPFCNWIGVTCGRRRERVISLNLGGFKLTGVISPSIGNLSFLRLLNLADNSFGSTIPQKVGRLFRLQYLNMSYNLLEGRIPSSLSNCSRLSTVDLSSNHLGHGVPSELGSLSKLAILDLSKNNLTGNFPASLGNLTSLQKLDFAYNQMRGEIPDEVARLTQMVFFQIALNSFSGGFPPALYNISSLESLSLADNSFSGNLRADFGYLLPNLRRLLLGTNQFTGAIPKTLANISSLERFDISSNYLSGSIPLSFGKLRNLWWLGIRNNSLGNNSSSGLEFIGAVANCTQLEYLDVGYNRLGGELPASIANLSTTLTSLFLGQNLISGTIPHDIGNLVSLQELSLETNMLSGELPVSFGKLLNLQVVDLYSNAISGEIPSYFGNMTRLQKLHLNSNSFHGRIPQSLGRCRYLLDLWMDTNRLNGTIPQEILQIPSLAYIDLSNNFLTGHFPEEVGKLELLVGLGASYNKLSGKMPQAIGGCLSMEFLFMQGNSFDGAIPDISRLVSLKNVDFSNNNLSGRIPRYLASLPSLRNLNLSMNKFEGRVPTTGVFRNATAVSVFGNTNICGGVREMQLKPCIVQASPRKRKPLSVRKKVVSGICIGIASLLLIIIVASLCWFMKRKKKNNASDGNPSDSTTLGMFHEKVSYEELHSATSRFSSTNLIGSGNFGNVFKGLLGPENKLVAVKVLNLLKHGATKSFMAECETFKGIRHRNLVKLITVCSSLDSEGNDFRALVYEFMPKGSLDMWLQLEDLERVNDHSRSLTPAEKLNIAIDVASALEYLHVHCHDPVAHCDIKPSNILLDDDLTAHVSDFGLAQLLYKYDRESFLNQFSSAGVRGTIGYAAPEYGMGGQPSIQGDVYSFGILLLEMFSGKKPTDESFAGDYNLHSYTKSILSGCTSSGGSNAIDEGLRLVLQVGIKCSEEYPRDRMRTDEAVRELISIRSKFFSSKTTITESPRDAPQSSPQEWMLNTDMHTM

FLS2-YFPc / FLS2-YFPn = molecular target: T2, FLS2-YFPc / FLS2-YFPn (Arabidopsis thaliana, UniProt Q9FL28 24-1173); experiment: bimolecular fluorescence complementation in N. benthamiana, with plasmolysis (panel E)
T2 construct: Two BiFC constructs used in both combinations, expressed in N. benthamiana leaves; not shown: split-YFP half (YFPc or YFPn) from the BiFC vector
T2 sequence (Q9FL28 24-1173): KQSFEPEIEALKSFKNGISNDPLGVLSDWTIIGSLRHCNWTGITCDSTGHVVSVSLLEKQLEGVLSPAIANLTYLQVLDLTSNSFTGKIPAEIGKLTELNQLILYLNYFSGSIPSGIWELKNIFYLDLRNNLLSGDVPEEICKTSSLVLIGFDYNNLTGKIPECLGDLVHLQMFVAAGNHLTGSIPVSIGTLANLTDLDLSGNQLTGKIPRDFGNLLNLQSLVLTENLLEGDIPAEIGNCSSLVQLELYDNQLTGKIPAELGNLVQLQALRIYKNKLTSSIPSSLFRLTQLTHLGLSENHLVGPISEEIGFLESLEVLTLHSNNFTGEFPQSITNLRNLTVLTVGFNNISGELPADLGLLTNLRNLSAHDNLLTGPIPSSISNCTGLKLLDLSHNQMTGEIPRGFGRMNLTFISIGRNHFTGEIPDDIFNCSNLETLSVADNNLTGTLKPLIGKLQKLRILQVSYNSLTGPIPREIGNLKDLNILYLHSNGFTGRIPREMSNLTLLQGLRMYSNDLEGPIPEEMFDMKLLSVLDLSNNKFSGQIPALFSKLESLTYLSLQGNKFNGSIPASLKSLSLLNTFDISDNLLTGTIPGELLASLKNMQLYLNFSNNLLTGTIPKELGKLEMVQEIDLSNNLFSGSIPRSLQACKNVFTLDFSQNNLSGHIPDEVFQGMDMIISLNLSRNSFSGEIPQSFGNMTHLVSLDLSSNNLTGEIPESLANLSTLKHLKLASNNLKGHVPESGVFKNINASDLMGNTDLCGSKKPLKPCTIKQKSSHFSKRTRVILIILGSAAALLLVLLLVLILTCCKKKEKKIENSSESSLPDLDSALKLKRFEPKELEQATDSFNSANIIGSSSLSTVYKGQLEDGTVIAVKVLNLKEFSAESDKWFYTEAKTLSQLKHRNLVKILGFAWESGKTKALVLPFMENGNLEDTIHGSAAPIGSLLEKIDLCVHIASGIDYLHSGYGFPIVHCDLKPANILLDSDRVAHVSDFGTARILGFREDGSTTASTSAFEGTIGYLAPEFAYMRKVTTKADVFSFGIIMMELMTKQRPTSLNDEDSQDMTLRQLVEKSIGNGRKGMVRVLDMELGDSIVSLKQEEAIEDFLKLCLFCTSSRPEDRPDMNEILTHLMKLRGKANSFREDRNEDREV

BAK1-HA = molecular target: T3, BAK1-HA (Arabidopsis thaliana, UniProt Q94F62 26-615); experiment: co-immunoprecipitation with GFP Trap beads after transient co-expression in N. benthamiana
T3 construct: Transiently expressed in N. benthamiana; also called LRR-RK BAK1; 35S::BAK1-HA; not shown: HA tag
T3 sequence (looked up): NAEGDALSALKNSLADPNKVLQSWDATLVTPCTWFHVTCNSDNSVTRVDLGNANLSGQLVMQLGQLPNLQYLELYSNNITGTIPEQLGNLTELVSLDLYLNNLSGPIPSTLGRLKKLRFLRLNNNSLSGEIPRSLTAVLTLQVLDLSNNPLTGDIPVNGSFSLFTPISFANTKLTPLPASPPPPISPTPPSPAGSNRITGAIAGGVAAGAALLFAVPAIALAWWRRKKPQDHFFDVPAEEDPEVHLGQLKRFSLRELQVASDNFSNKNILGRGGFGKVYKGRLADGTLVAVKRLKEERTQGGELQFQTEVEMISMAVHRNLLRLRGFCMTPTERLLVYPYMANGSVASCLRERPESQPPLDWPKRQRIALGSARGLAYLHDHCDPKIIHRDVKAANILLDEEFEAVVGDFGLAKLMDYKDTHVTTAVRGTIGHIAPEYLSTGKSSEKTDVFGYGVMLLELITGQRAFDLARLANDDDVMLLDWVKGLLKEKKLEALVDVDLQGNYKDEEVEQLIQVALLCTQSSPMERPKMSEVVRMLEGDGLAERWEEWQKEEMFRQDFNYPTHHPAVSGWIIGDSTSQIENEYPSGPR

B1: GRP7-YFPn / GRP7-YFPc (other)
chain: MASGDVEYRCFVGGLAWATDDRALETAFAQYGDVIDSKIINDRETGRSRGFGFVTFKDEKAMKDAIEGMNGQDLDGRSITVNEAQSRGSGGGGGHRGGGGGGYRSGGGGGYSGGGGSYGGGGGRREGGGGYSGGGGGYSSRGGGGGSYGGGRREGGGGYGGGEGGGYGGSGGGGGW
notes: Two BiFC constructs (N- or C-terminal YFP half) used in both combinations; Results are reported for them together; also called GRP7-YFPn/c; not shown: split-YFP half (YFPn or YFPc) from the pAM-PAT-35S BiFC vector
binding result (EFR-YFPc / EFR-YFPn): binds | binding result (FLS2-YFPc / FLS2-YFPn): binds

B2: GRP7-eGFP (other)
chain: B1 chain
notes: Transiently expressed in N. benthamiana under the 35S promoter; also called 35S::GRP7-eGFP; not shown: C-terminal enhanced green fluorescent protein (eGFP) tag
binding result (BAK1-HA): no binding
